The results in this text go back to the DeepSol protein solubility set.

The data set in a line: soluble on expression in E. coli; label from the status in PepcDB or PDB records.
In the case of “MGSDKIHHHHHHMIVIEDVYKRYKTDHGPGKWILQGVNLTIPRNVNVGLIGSNGAGKSTLLRIIGGIDHPNKGKVERRCRLSWPMGQGGLEPTLTGRQNAKFVCRLHGHQDDLPERLIFIQDFSGLKDAFDEPVNTYSSGMRSRLQFAMSLAFDFDIYISDEVTAAGDAAFRDKAAAAFKGMTNRAGLIMVAHSESTLRQFCEAGILLYQGKAQWFDKIEEAFKAYKDTVQK”, the “soluble on expression in E. coli” value is “not soluble”.
In the case of “MSLEKNALYFVPLGGAGEIGMNLNLYAHQGKWLMVDLGVTFGNETTPGVDIILPDPSFIEERKGDLVGLVLTHAHEDHVGAVAYLWPYLECPVYATPFTAEFLRHKLREEGIEPDVKLIEIPLGGRFTVGPFDIEMITTTHSIPEPNHLAIRTTAGTVLHTADWKFDPEPLVGPPADEAALRRLGDEGVLAMVGDSTNIFTEGHSASEGDVRRSMIDLFARFQGRIAVGCFASNIARMETIALAAKANGREVALVGRSLWRMMETARTCGYLKGCPAFLGDEEAAKLPRDKVVYICTGSQGEPRAALKRIASGSHPYVSLSAGDVVIFSSRVIPGNERSILQLQNQLVEMGVKLITSRDAMVHVSGHPGAEEVRSLYGMVRPSIALPVHGEFLHLDHHADVARDLGVAHVVRITNGAVVRLDGAEPTVVGKVPFGRLALDGDRLLQIDCEIIRDRKRMGYNGSVAVSLAIDDKGKLLGTPKISARGLLDPEDDADEVADLTNRVRGAVNAVRPADRKDDAAVAEAVRLAVRRVFRQGQNRRPVTDIHVLRVEGHHHHHH” it was “soluble”; in that of “TETTSFLITKFSPDQQNLIFQGDGYTTKEKLTLTKAVKNTVGRALYSSPIHIWDRETGNVANFVTSFTFVINAPNSYNVADGFTFFIAPVDTKPQTGGGYLGVFNSAEYDKTTQTVAVEFDTFYNAAWDPSNRDRHIGIDVNSIKSVNTKSWKLQNGEEANVVIAFNAATNVLTVSLTYPN”, “soluble”; in that of “HSQITLRGNAINTVGELPAVGSPAPAFTLTGGDLGVISSDQFRGKSVLLNIFPSVDTPVSATSVRTFDERAAASGATVLCVSKDLPFAQKRFCGAEGTENVMPASAFRDSFGEDYGVTIADGPMAGLLARAIVVIGADGNVAYTELVPEIAQEPNYEAALAALGA”, “soluble”.
In the case of “MVVGGFGVGKTTMVRSVSEIRPLNTEETMTQAGEAVDDISEVRGKSATTVAFDFGRISLDARNVLYLFGAPGQERFWFLWDRLFSGTLGAVVLVDTRRIDDSWYAIDRLEHHGTPFIVACNDFGGPEHSPEAVREALDLDPRVPLVSCDARSRQSSKQVLITLVEHLQAHYAGPTARPRQEFALEHHHHHH” it was “not soluble”.
The same measure for “MEEIILVFPKEELEVRAMEFKKEFLDCGERIINGSFKLDYVDDYAEWLKIIRNNLKKETVNPKWVVSTTFFAVRKSDNKIIGIVNLRHYLNDFYKNSGHIGYSVRPSERRKGYASEILRQILEYAREKGLTEVCVVCKKENEASRKTILKNGGILSRTFKDEGEEHEAFYINTKKH”: “not soluble”.
As to “AVKLQESGPGILKPSQTLSLTCSFSGFSLTTYGMGVGWIRQSSGKGLEWLAHIWWDDDKYYNPSLKSRLTISKDTSRNQVFLKITSVATADTATYYCARRAPFYGNHAMDYWGQGTTVTVSSAKTTPPSVYPLAPGSAAQTNSMVTLGCLVKGYFPEPVTVTWNSGSLSSGVHTFPAVLQSDLYTLSSSVTVPSSPRPSETVTCNVAHPASSTKVDKKI”, the “soluble on expression in E. coli” value is listed as “soluble”.
The same measure for “MYTTQMDAAKKGIITDEMRIVAEKEGVHVEKLRELVASGKVVIPANKNHKKLEPQGIGEGLRTKINVNIGISKDCCNFEMELEKAKKAIELKAEAIMDLSSYGKTREFRRKLVEMSPVMIGTVPVYDAVGFYEKDLKDISAEEFFEVVEKHAEDGVDFMTIHAGINRETAKRFKENGRLTNIVSRGGSLIFAWMELTGNENPFYEQYDRLLQIFEKYDVTISLGDALRPGSINDSTDASQIQELIVLGELTKRAWEKNVQVMIEGPGHMAINEIAPNMVLEKKLCHGAPFYVLGPIVTDIAPGYDHITSAIGGAIAAANGADFLCYVTPAEHLRLPDIDDMKEGIIAARIAAHAADIAKGIKGAREWDYQMSEARRNLDWNRMFELAIDREKAERYRKSSMPEDEDTCTMCGRMCAVKNTNKALKGEKINIL”: “not soluble”; for “MTNVQEQDKRKGGRPPTGRVRKLSKSVTVKFSKPSYEALKLRARKANRKLAEYIRESALNGEVVSGHNAETVAIAKNLIGMANNLNQLANLSHQRGFHETHVYVVDLLRRLKEILDEYRQASYKPKPSSMGRKEDTT”: “not soluble”.
